Data reported in patent US20240156980A1 (Molecular Partners, published 2024).

T1: CD3-specific binding domain C7v14
T1 construct: Used as analyte in SPR; also called hC22_88B02v14
T1 chain: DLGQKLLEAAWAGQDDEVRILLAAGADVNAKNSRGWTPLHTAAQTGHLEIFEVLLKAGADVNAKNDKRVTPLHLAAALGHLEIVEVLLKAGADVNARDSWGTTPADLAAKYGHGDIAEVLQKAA


Columns and labels:
[1] = target: T2, human EGFR on tumor cells (human, UniProt P00533 25-1210); assay: cell-based or functional assay
[2] = target: T3, human CD3 on T cells (human, UniProt P07766 23-207; P09693 23-182; P04234 22-171); assay: cell-based or functional assay
T3 sequence (P07766 23-207, chain 1 of 3): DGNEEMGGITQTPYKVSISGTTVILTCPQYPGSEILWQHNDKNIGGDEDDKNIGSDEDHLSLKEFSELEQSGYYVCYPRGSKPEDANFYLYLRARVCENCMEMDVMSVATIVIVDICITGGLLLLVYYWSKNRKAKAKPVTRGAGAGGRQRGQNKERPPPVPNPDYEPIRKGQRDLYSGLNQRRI
T3 sequence (P09693 23-182, chain 2 of 3): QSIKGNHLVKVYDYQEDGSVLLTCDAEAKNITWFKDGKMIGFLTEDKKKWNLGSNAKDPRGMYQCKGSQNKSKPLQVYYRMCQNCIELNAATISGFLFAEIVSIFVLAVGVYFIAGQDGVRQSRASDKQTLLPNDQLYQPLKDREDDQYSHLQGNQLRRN
T3 sequence (P04234 22-171, chain 3 of 3): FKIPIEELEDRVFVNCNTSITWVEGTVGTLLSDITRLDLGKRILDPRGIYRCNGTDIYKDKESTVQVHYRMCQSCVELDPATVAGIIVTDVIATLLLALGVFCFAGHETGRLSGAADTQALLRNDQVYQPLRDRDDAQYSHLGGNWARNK

[3] = target: T1, CD3-specific binding domain C7v14; assay: SPR validation of down-tuned binders
[4] = target: T2, human EGFR on tumor cells; assay: flow cytometry on HCT 116 tumor cells, detection with anti-DARPin antibodies
Experimental: (§1) The determination of CD3 binding was performed with human CD3 on Jurkat cells, and binding to hEGFR on cells with HCT116 tumor cells, using Flow Cytometer Attune Nxt. A titration of prodrug DARPin molecules was incubated with 200′000 cells per well (for both Jurkat and HCT116 cells) for 30 min at 4° C. After washing, CD3 binding of DARPin® molecule was detected by 1:1000-diluted anti-DARPin® Antibody-Mix (1 h incubation at 4° C.) with the corresponding secondary antibody anti-rabbit IgG Alexa Fluor 488 (30 min incubation at 4° C.), which was added after washing off excess anti-DARPin Antibodies. Cells were subsequently washed and stained for livedead (aqua, 1:1000, thermofisher) and resuspended in Cytofix fixation buffer (BD Biosciences). Median of mean fluorescence intensities of Alexa Fluor 488 binding on live cells were measured by Flow Cytometry and data was plotted using GraphPad Prism 8.

[5] = target: T3, human CD3 on T cells; assay: flow cytometry on Jurkat cells, detection with anti-DARPin antibodies and anti-rabbit IgG Alexa Fluor 488, MFI [column T-cell binding]
Experimental: as §1

Row | binding result [3] | Binder | also measured
1 | – | Active TCE EGFR-C7v14-6His (designed binder) MGSDLGYKLLRAAFHGQDDEVRILLAAGADVNAKDLIGQTPLHNAAWVGHLEIVEVLLKAGADVNAKDYYGNTPLHLAAHDGHLEIVEVLLKAGADVNAQDTWGETPADLATNAGHEDIAEVLQKAAGSPTPTPTTPTPTPTTPTPTPTGSDLGQKLLEAAWAGQDDEVRILLAAGADVNAKNSRGWTPLHTAAQTGHLEIFEVLLKAGADVNAKNDKRVTPLHLAAALGHLEIVEVLLKAGADVNARDSWGTTPADLAAKYGHGDIAEVLQKAAGSHHHHHH | T-cell activation EC50 (CD25 on CD8+ T cells), EGFR+ HCT 116 tumor cells and pan T-cells [1]: 0.0016 nM; T-cell activation EC50 (CD25 on CD8+ T cells), EGFR+++ A431 tumor cells and pan T-cells [1]: 0.0037 nM
2 | – | CD3-PDD NCL EGFR-C7v119-[NCL1]-06E05v05-6His (designed binder) MGSDLGYKLLRAAFHGQDDEVRILLAAGADVNAKDLIGQTPLHNAAWVGHLEIVEVLLKAGADVNAKDYYGNTPLHLAAHDGHLEIVEVLLKAGADVNAQDTWGETPADLATNAGHEDIAEVLQKAAGSPTPTPTTPTPTPTTPTPTPTGSDLGQKLLEAAWAGQDDEVRELLKAGADVNAKNSRGWTPLHTAAQTGHLEIFEVLLKAGADVNAKDDKGVTPLHLAAALGHLEIVEVLLKAGADVNAQDSWGTTPADLAAKYGHEDIAEVLQKAASGPTPTPTTPTPTPTTPTPTPTGSDLGKKLLQAARAGQLDEVRELLKAGADVNAKDAKGLTPLHLAAYHGHLEIVEVLLKAGADVNAKDVYGWTPLHIAAASGHLEIVEVLLKAGADVNAKDALGWTPLHLAASHGHLEIVEVLLKAGADVNAQDKSGKTPADLAARAGHQDIAEVLQKAAGSHHHHHH | tumor cell killing EC50 (LDH release), HCT 116 tumor cells and pan T-cells [2]: 0.0821 nM
3 | – | CD3-PDD NCL EGFR-C7v122-[NCL1]-06E05v05-6His (designed binder) MGSDLGYKLLRAAFHGQDDEVRILLAAGADVNAKDLIGQTPLHNAAWVGHLEIVEVLLKAGADVNAKDYYGNTPLHLAAHDGHLEIVEVLLKAGADVNAQDTWGETPADLATNAGHEDIAEVLQKAAGSPTPTPTTPTPTPTTPTPTPTGSDLGQKLLEAAWAGQDDEVRELLKAGADVNAKNSRGWTPLHTAAQTGHLEIFEVLLKAGADVNAKNDKRVTPLHLAAALGHLEIVEVLLKAGADVNARDSWGTTPADLAAKYGHQDIAEVLQKAASGPTPTPTTPTPTPTTPTPTPTGSDLGKKLLQAARAGQLDEVRELLKAGADVNAKDAKGLTPLHLAAYHGHLEIVEVLLKAGADVNAKDVYGWTPLHIAAASGHLEIVEVLLKAGADVNAKDALGWTPLHLAASHGHLEIVEVLLKAGADVNAQDKSGKTPADLAARAGHQDIAEVLQKAAGSHHHHHH | tumor cell killing EC50 (LDH release), HCT 116 tumor cells and pan T-cells [2]: > 0.1 nM
4 | binds | Binder #5 (designed binder, N-terminal His-tag; also called 06E05v30) MRGSHHHHHHGSDLGKKLLQAARAGQLDEVRELLKAGADVNAKDAKGLTPLHLAAYHGHLEIVEVLLKAGADVNAKDVYGWTPLHIAAASGHLEIVEVLLKAGADVNAKDWLGITPLHLAASHGHLEIVEVLLKAGADVNAQDKSGKTPADLAARAGHQDIAEVLQKAA | –
5 | binds | Binder #9 (designed binder, N-terminal His-tag; also called 06E05v34) MRGSHHHHHHGSDLGKKLLQAARAGQLDEVRELLKAGADVNAKDAKGLTPLHLAAYHGHLEIVEVLLKAGADVNAKDVYGWTPLHIAAASGHLEIVEVLLKAGADVNAKDWLGATPLHLAASHGHLEIVEVLLKAGADVNAQDKSGKTPADLAARAGHQDIAEVLQKAA | –
6 | binds | Binder #8 (designed binder, N-terminal His-tag; also called 06E05v33) MRGSHHHHHHGSDLGKKLLQAARAGQLDEVRELLKAGADVNAKDAKGLTPLHLAAYHGHLEIVEVLLKAGADVNAKDVYGWTPLHIAAASGHLEIVEVLLKAGADVNAKDWLGITPLHLAASAGHLEIVEVLLKAGADVNAQDKSGKTPADLAARAGHQDIAEVLQKAA | –
7 | binds | Binder #10 (designed binder, N-terminal His-tag; also called 06E05v35) MRGSHHHHHHGSDLGKKLLQAARAGQLDEVRELLKAGADVNAKDAKGLTPLHLAAYHGHLEIVEVLLKAGADVNAKDVAGWTPLHIAAASGHLEIVEVLLKAGADVNAKDWLGATPLHLAASHGHLEIVEVLLKAGADVNAQDKSGKTPADLAARAGHQDIAEVLQKAA | –
8 | binds | Binder #11 (designed binder, N-terminal His-tag; also called 06E05v36) MRGSHHHHHHGSDLGKKLLQAARAGQLDEVRELLKAGADVNAKDAKGLTPLHLAAYHGHLEIVEVLLKAGADVNAKDVYGWTPLHIAAASGHLEIVEVLLKAGADVNAKDALGATPLHLAASHGHLEIVEVLLKAGADVNAQDKSGKTPADLAARAGHQDIAEVLQKAA | –
9 | binds | Binder #6 (designed binder, N-terminal His-tag; also called 06E05v31) MRGSHHHHHHGSDLGKKLLQAARAGQLDEVRELLKAGADVNAKDAKGLTPLHLAAYHGHLEIVEVLLKAGADVNAKDVAGWTPLHIAAASGHLEIVEVLLKAGADVNAKDWLGITPLHLAASHGHLEIVEVLLKAGADVNAQDKSGKTPADLAARAGHQDIAEVLQKAA | –
10 | binds | Binder #12 (designed binder, N-terminal His-tag; also called 06E05v37) MRGSHHHHHHGSDLGKKLLQAARAGQLDEVRELLKAGADVNAKDAKGLTPLHLAAYHGHLEIVEVLLKAGADVNAKDVYGWTPLHIAAASGHLEIVEVLLKAGADVNAKDWLGATPLHLAASAGHLEIVEVLLKAGADVNAQDKSGKTPADLAARAGHQDIAEVLQKAA | –
11 | binds | Binder #7 (designed binder, N-terminal His-tag; also called 06E05v32) MRGSHHHHHHGSDLGKKLLQAARAGQLDEVRELLKAGADVNAKDAKGLTPLHLAAYHGHLEIVEVLLKAGADVNAKDVYGWTPLHIAAASGHLEIVEVLLKAGADVNAKDALGITPLHLAASHGHLEIVEVLLKAGADVNAQDKSGKTPADLAARAGHQDIAEVLQKAA | –
12 | – | CD3-PDD CL EGFR-C7v119-[Linker#2]-06E05v07-6His (designed binder) MGSDLGYKLLRAAFHGQDDEVRILLAAGADVNAKDLIGQTPLHNAAWVGHLEIVEVLLKAGADVNAKDYYGNTPLHLAAHDGHLEIVEVLLKAGADVNAQDTWGETPADLATNAGHEDIAEVLQKAAGSPTPTPTTPTPTPTTPTPTPTGSDLGQKLLEAAWAGQDDEVRELLKAGADVNAKNSRGWTPLHTAAQTGHLEIFEVLLKAGADVNAKDDKGVTPLHLAAALGHLEIVEVLLKAGADVNAQDSWGTTPADLAAKYGHEDIAEVLQKAASGGGGGPQASTGRSGGGGGGSDLGKKLLQAARAGQLDEVRELLKAGADVNAKDAKGLTPLHLAAYHGHLEIVEVLLKAGADVNAKDVYGWTPLHIAAASGHLEIVEVLLKAGADVNAKDWLGWTPLHLAASAGHLEIVEVLLKAGADVNAQDKSGKTPADLAARAGHQDIAEVLQKAAGSHHHHHH | EC50 [4]: 0.353 nM; binding result [5]: no binding (tested: 100000 pM)
13 | – | CD3-PDD CL EGFR-C7v122-[Linker#2]-06E05v07-6His (designed binder) MGSDLGYKLLRAAFHGQDDEVRILLAAGADVNAKDLIGQTPLHNAAWVGHLEIVEVLLKAGADVNAKDYYGNTPLHLAAHDGHLEIVEVLLKAGADVNAQDTWGETPADLATNAGHEDIAEVLQKAAGSPTPTPTTPTPTPTTPTPTPTGSDLGQKLLEAAWAGQDDEVRELLKAGADVNAKNSRGWTPLHTAAQTGHLEIFEVLLKAGADVNAKNDKRVTPLHLAAALGHLEIVEVLLKAGADVNARDSWGTTPADLAAKYGHQDIAEVLQKAASGGGGGPQASTGRSGGGGGGSDLGKKLLQAARAGQLDEVRELLKAGADVNAKDAKGLTPLHLAAYHGHLEIVEVLLKAGADVNAKDVYGWTPLHIAAASGHLEIVEVLLKAGADVNAKDWLGWTPLHLAASAGHLEIVEVLLKAGADVNAQDKSGKTPADLAARAGHQDIAEVLQKAAGSHHHHHH | EC50 [4]: 0.41 nM; binding result [5]: no binding
